Source: patent publication US20030032157A1, “Polypeptides interactive with Bcl-XL” (priority 2001, published 2003)
Where no end group is shown, it is not given here.

B1: SEQ ID NO 229 (peptide)
chain: SRREEAWDALFRGI
notes: Second selection
B2: SEQ ID NO 224 (peptide)
chain: KYQQLFEDIRW
notes: Second selection; clone from a known polypeptide
B3: SEQ ID NO 228 (peptide)
chain: TLRHWGLQFNTRFGV
notes: Second selection; clone from a hypothetical or unknown polypeptide
B4: SEQ ID NO 230 (peptide)
chain: TLREIGDLYLTSILGRR
notes: Second selection
B5: SEQ ID NO 227 (peptide)
chain: MGDVVGFIDELEGAVSDLHRAL
notes: as for B3
B6: SEQ ID NO 33 (peptide)
chain: ALSWIEMDTEMEMLLARFRRTPGDLHLDHSVHLCAHP
notes: mRNA display clone from a hypothetical or unknown polypeptide
B7: SEQ ID NO 12 (peptide)
chain: MKWDTDNTLGTEISWENKLAEGLKLTLDTIFVHHVLHAPH
notes: mRNA display clone from a known polypeptide
B8: SEQ ID NO 6 (peptide)
chain: GGESDTDPHFQDALMQLAKAVASAAAALVLKAKSVAQR
notes: as for B7
B9: proline/glutamine rich splicing factor cluster polypeptide (peptide)
chain: RGLWVDRVLEEWGLEPRQ
notes: Selected clone translated from the incorrect reading frame of the parent mRNA; not further characterized
B10: clone x42 (cDNA FLJ23277, Clone HEP03322) (peptide)
chain: NGNLFASFIADS
notes: as for B6
B11: Novel protein D, clone T25 (peptide)
peptide: GTRISDMLKLIADTWQRNCCPA-{FLAG‑M2 epitope}
modifications: cysteine pairing not given here; also: 35S-Met labelled in vitro translation product
B12: Golgi SNAP receptor complex member 1, clone V06 (peptide)
peptide: GTRQDRMFETMAIEIEQLLARLTGVNDKMAEYTNA
B13: Syntaxin 4A, clone U58 (peptide)
peptide: ATRQALNEISARHSGIQQLERSIRELHDIFTFL
B14: Novel protein I, clone C21 (peptide)
peptide: IAQATKATIDKWNCIKLKIFYTSKKEAS-{FLAG‑M2 epitope}
modifications: also: 35S-Met labelled in vitro translation product
B15: Neutrophil cytosolic factor 2, clone T95 (peptide)
peptide: QRGMLYYQTEKYDLAIKDLKEALIQLRGNN
notes: fragment limits not in text
B16: Bak, clone C32 (peptide)
peptide: GQVGRQLAIIGDDINRRK
B17: Bcl-2 related protein BPR, clone Y75 (peptide)
peptide: TGKEAILRRLVALLEEEAEVINQKLASDPALRSKLVRLSSDSFAHL
notes: also called Bcl-2 related proline-rich protein BPR
B18: Talin (splice variant), clone X56 (peptide)
peptide: GGESDTDPHFQDALMQLAKAVASAAAALVLKAKSVAQR-{FLAG‑M2 epitope}
modifications: also: 35S-Met labelled in vitro translation product
notes: fragment limits not in text; also called selected Talin fragment
B19: Toll-like receptor 3, clone U15 (peptide)
peptide: FWLEERDFEAGVFELEAIVNSIKRS
B20: HSPC300, clone C68 (peptide)
peptide: AVQEDPVQREIHQDWANREYIEIITSSIKKIAD
notes: also called HSCP300
B21: Voltage dependent anion channel 3, clone W06 (peptide)
peptide: MKWDTDNTLGTEISWENKLAEGLKLTLDTIFVHHVLHAPH-{FLAG‑M2 epitope}
modifications: also: 35S-Met labelled in vitro translation product
B22: Bax, clone C49 (peptide, UniProt Q07812 58-89, looked up)
peptide: KLSECLKRIGDELDSNMELQRMIAAVDTDSPR
B23: Tumor protein HDCMB21P, clone V50 (peptide)
peptide: MFSDIYGIREIADGLCLEVEGKMVSRPE
B24: Bim, clone T44 (peptide)
peptide: ASMRQAEPADMRPEIWIAQELRRIGDEFNAYYARE
notes: fragment limits not in text

Each molecule was assayed against T1, BH3 domain binding site on Bcl-XL (Homo sapiens, UniProt Q07817) (assay: Competition assay with Bak BH3 domain peptide in the Bcl-XL binding assay). Settings: 20 μM Bak BH3 competitor (SEQ ID NO: 152); 100 μM for some polypeptides.
T1 construct: made in house; host or cells: E. coli BL21 (DE3) pLysS
T1 sequence (Q07817 1-211): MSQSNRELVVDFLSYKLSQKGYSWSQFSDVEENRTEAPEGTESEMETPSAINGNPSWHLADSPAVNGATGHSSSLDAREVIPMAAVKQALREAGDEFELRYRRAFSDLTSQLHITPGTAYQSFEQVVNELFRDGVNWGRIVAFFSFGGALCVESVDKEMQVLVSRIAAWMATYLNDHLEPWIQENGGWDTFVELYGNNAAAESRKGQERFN
Procedure: (§1) Only three of the selected proteins (Bim, Bak, and Bax) were previously known to contain a BH3 domain. In order to determine if the other proteins bound to the BH3 domain binding site on Bcl-XL, a competition assay was performed. The Bak BH3 domain peptide used as a positive control was prepared by chemical synthesis and used to compete with individual Bcl-XL-binding polypeptides in a Bcl-XL binding assay. […] At a fixed concentration of immobilized Bcl-XL, the Bak BH3 domain-containing peptide […] (SEQ ID NO: 152), also containing a FLAG-M2 epitope, was added at the indicated concentration along with a trace amount of a selected Talin fragment. After binding for 1 hour, the unbound material was removed and the bound protein was quantitated. The bound protein was assayed by scintillation counting, normalized to that bound in the absence of competitor, and plotted versus competitor concentration.
A competition assay was performed for each of the selected Bcl-XL-binding polypeptides using 20 μM Bak BH3 competitor based on the titration shown in FIG. 6. Due to poor competition with the Bcl-XL-binding polypeptides having the lowest Kd values (as determined above) a second competition was performed for some of these polypeptides using 100 μM competitor (FIG. 3A).
In the case of “w75: selected Bcl-XL-binding polypeptide, SEQ ID NO: 37 (RTLQPRLLQNQQQHLPALPIWFLLQWLRLHPL; listed as Homo sapiens)”, the “competition by Bak BH3 domain (BakBH3 effect), bound normalized to reaction without competitor” value is reported as “not competed at all”.
For “x42: selected polypeptide, SEQ ID NO: 35; cDNA FLJ23277, Clone HEP03322 (Table 1) (NGNLFASFIADS)”, the “competition by Bak BH3 domain (BakBH3 effect), bound normalized to reaction without competitor” value was “not competed at all”.
With “t53: selected Bcl-XL-binding polypeptide, SEQ ID NO: 25 (LDPVKDVLILSALRRMLWAADDFLEDLPFEQIG; listed as Homo sapiens)” the “competition by Bak BH3 domain (BakBH3 effect), bound normalized to reaction without competitor” value was “not competed at all”.

The molecules below were run against T2, Bcl-XL-GST fusion protein (Homo sapiens, UniProt Q07817) (assay: Free purified polypeptide binding to Bcl-XL-GST fusion protein (additional selection, FIG. 9)). Settings: purified free polypeptides.
T2 construct: made in house; host or cells: E. coli BL21 (DE3) pLysS
T2 sequence (Q07817 1-211): as the sequence (Q07817 1-211) above
Procedure: Detection of a polypeptide binding to a Bcl-XL-glutathione S-transferase (GST) fusion protein was carried out as follows. Twenty microliters of glutathione Sepharose 4B slurry (AP Biotech) was aliquoted to a microcentrifuge tube and washed with PBS. The Bcl-XL-GST fusion protein (60 μg), prepared as describe above, was added and allowed to bind to the Sepharose beads for 1 hr at 4° C. The beads were then re-washed in selection buffer (50 mM Tris-HCL pH 7.5, 150 mM KCl, 0.05% Triton X-100, 0.5 mg/ml BSA, and 0.1 mg/ml salmon sperm DNA). The Bcl-XL-GST beads were resuspended in 100 μl of selection buffer (approximately 11.5 μM Bcl-XL) and ^35S-labeled mRNA display construct or free peptide was added (approximately 10-60 nM) and incubated on a rotator for 1 hr at 4° C. The reaction was then transferred to a microcentrifuge column (BioRad) and unbound mRNA display constructs or free peptides were removed by a 10 sec spin at 1,000 rpm. The Sepharose beads were then washed three times with 500 μl of selection buffer. The extent of binding between the Bcl-XL-GST fusion protein and the mRNA display constructs or free peptides was determined by scintillation counting each fraction, including the recovered beads. […]
With “Bmf: selected Bmf polypeptide of the additional selection, purified free polypeptide (KAEVQIARKLQCIADQFHRLHVL)” the “Binding to the Bcl-XL-GST fusion protein” value was 6%.

The molecules below were run against T3, human Bcl-XL-GST fusion protein (human, UniProt P08515 1-218 = GST; Q07817 1-211) (assay: second mRNA display selection on immobilized Bcl-XL-GST). Settings: not given.
T3 construct: Made in E. coli, immobilized on glutathione Sepharose beads; whole entry named; also called Bcl-XL-glutathione S-transferase (GST) fusion protein; GST-BCL-XL
T3 sequence (P08515 1-218, tags or fused parts left off): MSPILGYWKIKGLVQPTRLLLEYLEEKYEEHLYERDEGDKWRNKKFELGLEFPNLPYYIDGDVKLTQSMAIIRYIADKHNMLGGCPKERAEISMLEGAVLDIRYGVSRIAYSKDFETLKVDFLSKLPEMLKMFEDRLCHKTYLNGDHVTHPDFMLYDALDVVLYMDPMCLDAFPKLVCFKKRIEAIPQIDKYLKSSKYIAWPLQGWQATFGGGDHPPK
B1: binds.
B2: binds.
B3: binds.
B4: binds.
B5: binds.

These molecules were tested against T3, human Bcl-XL-GST fusion protein (assay: free peptide on immobilized Bcl-XL-GST with Bak BH3 competitor). Settings: not given.
Procedure: as §1
A competition assay was performed for each of the selected Bcl-XL-binding polypeptides using 20 μM Bak BH3 competitor based on the titration shown in FIG. 6.
B6: binds.
B7: binds.
B8: binds.

These molecules were tested against T3, human Bcl-XL-GST fusion protein (assay: mRNA display selection on immobilized Bcl-XL-GST; cluster found among sequenced clones). Settings: not given.
B9: binds.
B10: binds.

These molecules were tested against T3, human Bcl-XL-GST fusion protein (assay: 35S-labeled free peptide on Bcl-XL-GST beads, target concentration varied, scintillation counting; relative Kd). Settings: not given.
Procedure: Detection of a polypeptide binding to a Bcl-XL-glutathione S-transferase (GST) fusion protein was carried out as follows. Twenty microliters of glutathione Sepharose 4B slurry (AP Biotech) was aliquoted to a microcentrifuge tube and washed with PBS. The Bcl-XL-GST fusion protein (60 μg), prepared as describe above, was added and allowed to bind to the Sepharose beads for 1 hr at 4° C. The beads were then re-washed in selection buffer (50 mM Tris-HCL pH 7.5, 150 mM KCl, 0.05% Triton X-100, 0.5 mg/ml BSA, and 0.1 mg/ml salmon sperm DNA). The Bcl-XL-GST beads were resuspended in 100 μl of selection buffer (approximately 11.5 μM Bcl-XL) and ³⁵S-labeled mRNA display construct or free peptide was added (approximately 10-60 nM) and incubated on a rotator for 1 hr at 4° C. The reaction was then transferred to a microcentrifuge column (BioRad) and unbound mRNA display constructs or free peptides were removed by a 10 sec spin at 1,000 rpm. The Sepharose beads were then washed three times with 500 μl of selection buffer. The extent of binding between the Bcl-XL-GST fusion protein and the mRNA display constructs or free peptides was determined by scintillation counting each fraction, including the recovered beads.
Purified radioactively labeled protein from the individual clones was incubated with immobilized Bcl-XL-GST for one hour and, after washing, the amount bound was determined by scintillation counting. The binding at each concentration was normalized to that at the highest concentration and plotted versus concentration. FIG. 5 is a representational plot of the results of this binding assay. A selected Bak fragment ([…]; SEQ ID NO: 152), containing a FLAG-M2 epitope, was synthetically produced as a free protein and used in a binding assay in which the concentration of immobilized Bcl-XL-GST was varied from 11 nM to 28 μM. The amount of peptide bound to Bcl-XL was determined by scintillation counting and normalized to that bound at the highest concentration. Normalized binding was then plotted versus Bcl-XL concentration and fit to a binding curve using nonlinear regression. […] However, only binding curves that gave a high correlation coefficient ® value) were used to determine an affinity.
For B11, the Kd was 1610 nM.
B12 was tested, and the Kd was 467 nM.
B13 showed a Kd of 640 nM.
B14 showed a Kd of 70 nM.
In the case of B15, the Kd is reported as 4.16 nM.
Work on B16 yielded a Kd of 402 nM.
For B17, the Kd was 420 nM.
B18 gave a Kd of 93 nM.
Molecule B19 has a Kd of 781 nM.
Work on B20 yielded a Kd of 580 nM.
Molecule B21 has a Kd of 1120 nM.
B22 was tested, and the Kd was 760 nM.
Molecule B23 has a Kd of 690 nM.
For B24, the Kd was 2 nM.
